According to US11103562B2, “Composition comprising alkaline phosphatase for use in the treatment of arthritides” (AMRIF BV, priority 2017, dated 2021):

Legend:
[1] = tested on: arthritic rats; assay: Knee swelling in rats with mBSA antigen-induced arthritis; type: in vivo, rat
Method: Experiments were performed using a rat model for RA as published by Chandruputla et al. (BioMed Int, 2015) to show the effects of recombinant human alkaline phosphatase (hRESCAP) on RA. hRESCAP was compared with MTX used as a positive control. The antigen-induced rat model uses two subcutaneous immunizations with a mixture of methylated bovine serum albumin (mBSA), CFA (complete Freund's adjuvant antigen) and CBP (custom Bordetella pertussis antigen) and intra-articular injections of mBSA on one side knee and saline (negative control) on the counter knee. Immunohistochemical (IHC) analysis specifically focussed on infiltration with macrophages and knee swelling is followed over time after therapeutic treatment with MTX, or hRESCAP.
In the rat model, RA is induced in the right knee (RA knee), the contralateral left knee serves as a internal control (control knee). The model allows various options for therapeutic interventions, either before intra-articular injections or during boosts injections with mBSA. Two hours prior to AP administration, rats received a dose of levamisole (50 mg/kg, s.c.). For comparison, arthritic rats received treatment with methotrexate (1 mg/kg, i.p.).
(§1) All rats (except healthy) were immunized and arthritis was induced via 1× or 4× intra-articular (i.a) mBSA injections, 4 or 5 days apart in the arthritic (right) knee, the contralateral (left, non-arthritic) knee serving as control knee. For therapeutic interventions, AP (human recombinant placenta AP, TNO, Zeist, The Netherlands) was administered subcutaneously (s.c.) at a dose of 700 U/kg (≈200 μg), MTX (VU University Medical Centers' Pharmacy) was administered intra-peritoneal (i.p.) at two dosages: 0.3 mg/kg (low dose) and 1.0 mg/kg (high dose). The rats were divided in 8 groups, based on different treatments and treatment schedules. In a prophylactic setting, two rats received AP twice prior to intra-articular (i.a.) arthritis induction and four rats received AP twice prior to intra-articular and 4× PBS in between i.a. injections. In the treatment groups, arthritic rats were administered AP twice or 4× after arthritis induction, either as standalone therapy or in combination with low or high dose MTX. Control rats received 500 μL of PBS (i.p.). […] At the end of study, all rats were sacrificed and tissues were excised for further processing and various analyses.

[2] = tested on: macrophages; assay: [^18F]fluoro-PEG-folate macrophage PET-CT imaging of arthritic knees; type: in vivo; details: PET scan at day 40; one rat per group
Excerpt: The macrophage PET tracer [^18F]fluoro-PEG-folate was synthesized, with a radiochemical purity of >96.5% and mean specific activity of 27.6±3.5 GBq/μmol. Untreated and 4× AP-treated arthritic were anesthetized using inhalation anaesthetics (isoflurane 2-2.5% and oxygen […]). The tail vein was cannulated with a poly-urethane 3 French cannula (0.7 mm×19 mm, BD Angiocath, Breda, The Netherlands). During PET-CT (Mediso nanoPET-CT, Budapest, Hungary) rats were place in an integrated heating bed (˜35° C.) while monitoring respiratory function. Computed tomography (CT) scan was performed for 5 min, followed by tracer administration (10.7±1.8 MBq) at the start of a dynamic PET scan of 60 min. PET data were normalized, and corrected for scatter, randoms, attenuation, decay and dead time. The list mode PET data were rebinned in 19 successive frames (4×5, 4×10, 2×30, 3×60, 2×300, 3×600 and 1×900 s), which were reconstructed using an iterative 3D Poisson ordered-subsets expectation-maximization algorithm with 4 iterations and 6 subsets. […] The CT and PET images were superimposed for drawing the regions of interest (ROI). […] TACs were expressed as standardized uptake values (SUV), i.e. mean ROI radioactivity concentration normalized to injected dose and body weight.

[3] = rats; cited from earlier work
[4] = AP plasma pharmacokinetics (enzymatic PNP assay) in healthy and arthritic rats; type: in vivo, rat; details: for persistence of increased plasma AP levels: 4 hour sampling
Method: An enzymatic assay was used to determine plasma concentrations of alkaline phosphatase prior to and 0-4 hours after administration a dose of 700 U/kg AP to healthy rats and arthritic rats, FIG. 7. At time points 0, 15, 60, 120 and 240 min after AP administration, a blood sample was drawn from the tail vain of the rats and transferred to a lml Eppendorf microtube containing heparin (454081, Greiner bio-one, Charlotte, USA) as anti-coagulant. As a control, blood was drawn at the same time points from arthritic rats that were injected a t=0 with 500 μl PBS. Eppendorf tubes were centrifuged at 3,000×g for 5 min at 4° C., after which the plasma was collected and stored at −80° C. until use.
The enzymatic assay for AP is based on the conversion of the substrate paranitrophenol-phosphate (PNP; 104105, Sigma-Aldrich, Zwijdrecht, the Netherlands) to paranitrophenol which is measured spectrophotometrically at 405 nm at 25° C. To a 3 ml reaction cuvette was added 2.9 ml substrate solution (containing final concentrations of 25 mM glycine, 10 mM MgCl2, 3 mM PNP, adjusted to pH 9.6 with NaOH). The reaction was started by adding 30 μl of plasma sample, 1:1 diluted in enzyme diluent buffer (25 mM glycine, 1 mM MgCl2, 0.1 mM ZnCl2, 10% (v/v) glycerol, adjusted to pH 9.6 with NaOH). In parallel a reference cuvette was assayed without substrate. The reaction was followed on line for 5 min at 25° C. with continuous monitoring increase of absorbance at 405 nm using a (10037-434, VWR, Radnor, Pa.<USA) spectrophotometer. From the linear phase of A405 increments, AP activity in plasma samples (in U/L) was calculated from a standard curve with serial dilutions of a human recombinant placenta AP stock solution. One Unit of activity is defined as the amount of enzyme decomposing 1 μmol of PNP/min at 25° C.

[5] = Tolerability of therapeutic interventions in arthritic rats; type: in vivo
Method: as §1

B1: AP: human recombinant placenta alkaline phosphatase (hRESCAP; TNO, Zeist), an ectophosphatase (protein, UniProt P05187 23-506, looked up)
Alkaline phosphatase, …: IIPVEEENPDFWNREAAEALGAAKKLQPAQTAAKNLIIFLGDGMGVSTVTAARILKGQKKDKLGPEIPLAMDRFPYVALSKTYNVDKHVPDSGATATAYLCGVKGNFQTIGLSAAARFNQCNTTRGNEVISVMNRAKKAGKSVGVVTTTRVQHASPAGTYAHTVNRNWYSDADVPASARQEGCQDIATQLISNMDIDVILGGGRKYMFRMGTPDPEYPDDYSQGGTRLDGKNLVQEWLAKRQGARYVWNRTELMQASLDPSVTHLMGLFEPGDMKYEIHRDSTLDPSLMEMTEAALRLLSRNPRGFFLFVEGGRIDHGHHESRAYRALTETIMFDDAIERAGQLTSEEDTLSLVTADHSHVFSFGGYPLRGSSIFGLAPGKARDRKAYTVLLYGNGPGYVLKDGARPDVTESESGSPEYRQQSAVPLDEETHAGEDVAVFARGPQAHLVHGVQEQTFIAHVMAFAACLEPYTACDLAPPAGTTD
Q: What does the source list for B1?
A: swelling of the mBSA-injected right knee ([1]; prophylactic and therapeutic AP treatment or MTX treatment, versus positive control): Reduced swelling; swelling of the non-treated left knee ([1]; versus positive control treatment): swelling is reduced; increased [^18F]fluoro-PEG-folate uptake (SUV) in arthritic knee of the untreated rat compared to the 4× AP-treated rat [2]: 1.5 fold; half life time [3]: ≈ 3 days; maximum increase of plasma AP levels over baseline ([4]; arthritic rats, 700 U/kg i.p.): 1.7 fold; time for plasma AP levels to drop to basal levels ([4]; arthritic rats, 700 U/kg i.p.): steadily returned to baseline levels; time for plasma AP levels to drop to basal levels ([4]; arthritic rats, 700 U/kg i.p., listed as hRESCAP): ≤ 4 h; time to maximum (peak) plasma AP level ([4]; healthy and arthritic rats, 700 U/kg i.p.): 1 h; peak plasma levels above baseline ([4]; healthy and arthritic rats, single i.p. dose of 700 U/kg): 50-70%; maximum increase of plasma AP levels over baseline ([4]; healthy rats, 700 U/kg i.p.): 1.5 fold; persistence of increased plasma AP levels ([4]; healthy rats, 700 U/kg i.p.): retained for up to 4 hours; persistence of increased plasma AP levels ([4]; healthy rats, 700 U/kg i.p., listed as hRESCAP): remained stably higher above control level in plasma over 4 hours; changes in body weight [5]: nor were significant changes in the body weight observed; tolerability / adverse effects ([5]; AP 700 U/kg, MTX 0.3 or 1.0 mg/kg): well tolerated
